B1: Microtubule protein alp7 (Schizosaccharomyces pombe (strain ATCC 38366 / 972)), Q9URY2 (parent)
chain: MSDIVSSSTDYSRRSPSSSSIGTNETDHTGFHEKRQGASSESLIPPAQRSSEESMPAPKLFPKLTSKPNPQLNLKDTLNKRVSDRLQALELNKSFDFSGTPRPMHPISHPLSQHKTPEFKHRKRNVESILTPKNPSLFSSSNAASQRGSLNTAPSNFAYSHSSSLQTSASSRPPVLSNGSFPRQTNTAPLNPPVHLKDNIRNSATPSTSQADIPTQYPINSTQKQQAKYEAEIEGYKAKLAGTYHEISVLQNTIVNVSGQLIAVNDQLQQLRSGKASTSPSTKDTNMRLVEGHNEETLALQRGKYTQEEVDKLIQERMEKVAEDLHAQYSAKHTQKINAFKANYARKYEATIQELQNQIGTAPNAPKISNSNWEEERRALKADNQTLQKQLEKAIQERQDMSDFLNNFKADMAKSDKLLMQQQSQQTGDLETLRLQLQALQEELRVEREERQQLIQMSEDLVIAMDQLNLEQKS
partner: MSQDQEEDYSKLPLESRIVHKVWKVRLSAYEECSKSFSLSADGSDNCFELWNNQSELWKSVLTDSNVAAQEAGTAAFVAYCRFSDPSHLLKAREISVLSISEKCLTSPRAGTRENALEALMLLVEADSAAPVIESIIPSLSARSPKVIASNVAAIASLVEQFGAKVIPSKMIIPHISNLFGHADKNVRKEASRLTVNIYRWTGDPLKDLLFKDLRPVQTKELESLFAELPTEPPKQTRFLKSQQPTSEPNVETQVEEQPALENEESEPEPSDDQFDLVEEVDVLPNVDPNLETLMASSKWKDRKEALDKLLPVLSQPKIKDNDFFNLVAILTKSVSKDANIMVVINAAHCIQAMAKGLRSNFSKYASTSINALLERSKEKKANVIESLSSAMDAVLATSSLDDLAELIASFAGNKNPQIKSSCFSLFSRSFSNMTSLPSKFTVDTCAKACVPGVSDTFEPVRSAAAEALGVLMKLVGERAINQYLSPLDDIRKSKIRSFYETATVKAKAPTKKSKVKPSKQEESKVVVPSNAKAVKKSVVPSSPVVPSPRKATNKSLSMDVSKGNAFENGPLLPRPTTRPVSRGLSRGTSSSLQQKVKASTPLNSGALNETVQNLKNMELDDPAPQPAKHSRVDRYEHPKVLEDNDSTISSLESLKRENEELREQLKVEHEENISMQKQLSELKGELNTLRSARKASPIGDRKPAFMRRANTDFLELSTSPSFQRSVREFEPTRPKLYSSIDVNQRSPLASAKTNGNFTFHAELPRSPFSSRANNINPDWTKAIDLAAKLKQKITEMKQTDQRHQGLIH

Variants of: B1
Settings: with alp14_schpo alp14, O94534

| effect of a mutation on the interaction | Variant |
| --- | --- |
| disrupting interaction | MSDIVSSSTDYSRRSPSSSSIGTNETDHTGFHEKRQGASSESLIPPAQRSSEESMPAPKLFPKLTSKPNPQLNLKDTLNKRVSDRLQALELNKSFDFSGTPRPMHPISHPLSQHKTPEFKHRKRNVESILTPKNPSLFSSSNAASQRGSLNTAPSNFAYSHSSSLQTSASSRPPVLSNGSFPRQTNTAPLNPPVHLKDNIRNSATPSTSQADIPTQYPINSTQKQQAKYEAEIEGYKAKLAGTYHEISVLQNTIVNVSGQLIAVNDQLQQLRSGKASTSPSTKDTNMRLVEGHNEETLALQRGKYTQEEVDKLIQERMEKVAEDLHAQYSAKHTQKINAFKANYARKYEATIQELQNQIGTAPNAPKISNSNWEEERRALKADNQTLQKQLEKAIQERQDMSDFLNNFKADMAKSDKLLMQQQSQQTGDLETLRLQLQALQEELRVEREERQQLIQMSEDAVIAMDQLNLEQKS [L461A] |

— IntAct's records for PubMed 19696784
